Experiments:
[1] = tested on: lipopolysaccharide (LPS) induced fever in SD rats; assay: Lipopolysaccharide (LPS) induced fever model in SD rats; type: in vivo; details: for Body temperature 2 hours after modeling / Body temperature 4 hours after modeling / Body temperature 6 hours after modeling / Body temperature 8 hours after modeling: LPS 20 μg/kg i.p., SD rats
Procedure: Animals: 230-260 grams of male SD rats; Drugs: lipopolysaccharide (LPS, SIGMA L-2880), aspirin (SIGMA A2093), protein BD-10; Instruments: electronic balance (SARTORIUS BP121S type), electronic clinical thermometer (CITIZEN CT-513W type).
Method: the method of intraperitoneal injection of Lipopolysaccharide to replicate rat fever model.
Preparation of experimental animals: After the experimental animals adapt to the experimental environment (temperature 22° C.±2° C., relative humidity 50%±2%) for 1 day. Pre-adaptation to measure rectal temperature at 8:00 and 15:00, rats were fasted and water was taken freely 12 h before experiment, and let the animal to empty its feces before measuring the rectal temperature. Apply petroleum jelly to the electronic thermometer probe before each temperature measurement. Insert the rat rectum 2 cm (can be marked at 2 cm to ensure that the depth of each insertion is consistent), and record the body temperature after the reading is stable.
Intraperitoneal injection of lipopolysaccharide to replicate rat fever model: The body temperature of the rats was measured before modeling. Qualified rats with a body temperature of 36.2-37.3° C. were selected and randomly divided into groups with 8 rats in each group. After oral administration of aspirin and different doses of protein BD-10, lipopolysaccharide (20 μg/kg, 2 ml/kg) was injected intraperitoneally immediately, and the normal control group was injected intraperitoneally with an equal volume of normal saline. The body temperatures of the rats were monitored after 2 hours for a total of 8 hours.
According to the body temperature measured at each time point on the day of the experiment, calculate the mean, standard deviation and standard error of the body temperature of each group of rats. The data of each group was compared with TTEST, and P<0.05 was considered as a significant difference.

[2] = tested on: PLO-induced epilepsy in mice; assay: Pilocarpine (PLO) induced convulsive epilepsy in mice; type: in vivo, ICR mice; design: mortality rate: unit not given here; details: for Grade IV seizure rate / mortality rate / Grade II seizure incubation period / Grade III seizure incubation period / Grade IV seizure incubation period / Cases of deaths / Cases of Grade IV: PLO 225 mg/kg i.p.; for Grade IV seizure rate / mortality rate: 10 mice; for Grade II seizure incubation period / Grade III seizure incubation period / Grade IV seizure incubation period: mean ± SEM; for Grade IV seizure incubation period: mice not reaching Grade IV recorded as maximum 1800 seconds; for Cases of deaths / Cases of Grade IV: of 10 mice; for Cases of Grade IV: 30 minutes observation
Procedure: Animals: male ICR mice; Drugs: Pilocarpine HCl (PLO, pilocarpine, pilocarpine hydrochloride), Diazepam (diazepam tablets), protein BD-10.
Experiment grouping: • Model group: • Diazepam 2 mg/kg group; • Protein BD-10, 50 mg/kg group, 200 mg/kg group.
The drug was administered once in the afternoon the day before modeling, PLO-225 mg/kg (modeling agent) was injected intraperitoneally 1 hour after the test drug was administered intragastrically on the day of modeling. And positive drug can be administered once 20 minutes before modeling. Observe for 30 minutes after PLO injection.
Observation indicators: (1)Seizure situation: the time of seizures from Grade II to Grade IV; (2)the time to death.
Seizure grade: Refer to Racine grading standard: Grade 0: No response; Grade I: manifested as twitching of facial muscles or the corners of the mouth; Grade II: can nod; Grade III: twitching of one limb; Grade IV: rigidity or body twitching; Grade V: generalized epilepsy (generalized tonic seizures).
Count the number of Grade IV seizures and deaths in each group of mice in the experiment; Grade II, III and IV incubation period. […] Chi-square test was used for statistics of the number of cases. The mean value and standard error of the incubation period were calculated, and TTEST was used to compare the model group with other groups. P<0.05 was considered as a significant difference.

[3] = tested on: phenol red excretion in mice; assay: Expectorant test, phenol red excretion method in mice; type: in vivo, ICR mice; details: for Phenol red excretion: 2.5% phenol red i.p. one hour later, trachea after 30 minutes, X ± SEM
Procedure: Animals: male ICR mice; Drugs and reagents: Mucosolvan (ambroxol hydrochloride tablets), phenol red, sodium bicarbonate, protein BD-10; Instruments: centrifuge (Sigma-3K15 type), balance (XS105DU type), Microplate tester (BIO-TEK type). Experiment grouping: • Solvent control group; • Mucosolvan 30 mg/kg group; • Protein BD-10, 20 mg/kg group, 50 mg/kg group.
The animals were fasted and water was taken freely 16 hours before the experiment. Orally administered Mucosolvan and different doses of protein BD-10 (administration volume 10 ml/kg) in groups, and the solvent control group was given the same volume of distilled water. One hour later, 2.5% phenol red solution was injected intraperitoneally. Mice were sacrificed by neck dislocation after 30 minutes. Take a trachea from below the thyroid cartilage to the branch of the trachea, and put the trachea into 3 ml 5% NaHCO3 solution and let it stand for 3 hours. Take 1 ml of the supernatant and centrifuge at 3000 rpm for 5 minutes. Measure and record the absorbance at 546 nm. According to the standard curve of phenol red, the excretion of phenol red was calculated.
Record the time point of oral administration, the time point of intraperitoneal injection of 2.5% phenol red solution, and the time point of taking the trachea respectively; The absorbance of each group of samples was measured by the microplate reader at 546 nm, Calculate the excretion of phenol red according to the standard curve of phenol red. Calculate the mean and standard error of the data in each group, and use TTEST to compare the solvent control group with other groups, and P<0.05 is considered as a significant difference.

B1: BD-10: recombinant keratin with amino acid sequence SEQ ID NO:1, expressed in E. coli inclusion bodies, band around 55 kD (protein, listed as Bos taurus)
chain: MSCRSYRISPGYSVTRTFSSCSAVAPKTGSRCCITAAPYRGVSCYRGLTGFGSRSVSALGSCGPRIAVGGFRAGSCNRSFGYRSGGVGGLSPPCITTVSVNESLLTPLNLEIDPNAQCVKHEEKEQIKNLNSRFAAFIDKVRFLEQQNKLLETKWQFYQNQRCCESNLEPLFNGYIETLRREAEHVEADGGRLASELNHVQEVLEGYKKKYEEEVALRATAENEFVVLKKDVDCAYLRKSDLEANVEALVEESNFLKRLYDEEIQILNAHISDTSVIVKMDNSRDLNMDCVVAEIKAQYDDIASRSRAEAESWYRNKCEEMKATVIRHGETLRRTKEEINELNRIIQRLTAEIENAKCQRTKLEAAVAEAEQQGEAALNDARCKLAGLEEALQKAKQDMACLLKEYQEVMNSKLGLDIEIATYRRLLEGEEQRLCEGVGSVNVCVSSSRGGVTCGGLTYSTTAGRQIASGPVATGGSITVLAPDSCVPCQPRASSFSCGSSRSVRFA
[1]; BD-10 10 mg/kg dose group, 2 hours after modeling, vs model group P<0.05
  Effect on body temperature of model rats (in words): can significantly reduce the body temperature
[1]; BD-10 10 mg/kg oral
  Body temperature 2 hours after modeling: 37.3 ± 0.1 °C
  Body temperature 4 hours after modeling: 37.8 ± 0.1 °C
  Body temperature 6 hours after modeling: 37.8 ± 0.1 °C
  Body temperature 8 hours after modeling: 37.6 ± 0.1 °C
[1]; BD-10 50 mg/kg oral
  Body temperature 2 hours after modeling: 37.3 ± 0.2 °C
  Body temperature 4 hours after modeling: 37.7 ± 0.2 °C
  Body temperature 6 hours after modeling: 37.9 ± 0.2 °C
  Body temperature 8 hours after modeling: 37.6 ± 0.1 °C
[1]; BD-10, dose not stated, 2 hours after modeling
  Effect on body temperature rise (in words, summary): has a significant effect of reducing body temperature rise
[2]; BD-10 50 mg/kg dose group, PLO model
  Incubation period of epilepsy Grade III, comparison with model group (in words): statistically different from the model group
[2]; BD-10 50 mg/kg intragastric
  Grade IV seizure rate: 90%
  mortality rate: 0
  Grade II seizure incubation period: 93 ± 4 s
  Grade III seizure incubation period: 166 ± 8 s
  Grade IV seizure incubation period: 871 ± 144 s
  Cases of deaths: 0
  Cases of Grade IV: 9
[2]; BD-10 200 mg/kg intragastric
  Grade IV seizure rate: 70%
  mortality rate: 0
  Grade II seizure incubation period: 90 ± 6 s
  Grade III seizure incubation period: 151 ± 7 s
  Grade IV seizure incubation period: 918 ± 198 s
  Cases of deaths: 0
  Cases of Grade IV: 7
[2]; BD-10, dose not stated, PLO model
  Effect on incubation period of Grade III epilepsy (in words, summary): can significantly prolong the incubation period of Grade III epilepsy
[3]; BD-10 20 mg/kg and 50 mg/kg dose groups, vs solvent control group P<0.05
  Effect on excretion of phenol red (in words): significantly increased the excretion of phenol red
[3]; BD-10 20 mg/kg oral
  Phenol red excretion: 0.746 ± 0.035 µg/mL
[3]; BD-10 50 mg/kg oral
  Phenol red excretion: 0.668 ± 0.063 µg/mL
[3]; BD-10, dose not stated
  Expectorant effect (in words, summary): has obvious expectorant effect
